This note sets out measurements from article PMC8126724, “Infant-Associated Bifidobacterial β-Galactosidases and Their Ability to Synthesize Galacto-Oligosaccharides” (Frontiers in Microbiology, 2021).

Substrate in data set [1]: O=[N+]([O-])c1ccccc1O[C@@H]1O[C@H](CO)[C@H](O)[C@H](O)[C@H]1O
The data set can be described thus: o-nitrophenol release, A420. The data set is classed as biochemical, Bifidobacterium breve. Conditions: 0.1 M sodium acetate pH 6.5, 40 °C, unit mM, not in table. The text has this: o-nitrophenol release, A420 on BgaB

Substrate in data set [2]: O=[N+]([O-])c1ccccc1O[C@@H]1O[C@H](CO)[C@H](O)[C@H](O)[C@H]1O
Briefly: o-nitrophenol release, A420. The data set is classed as biochemical, Bifidobacterium breve. As to conditions: 0.1 M sodium acetate pH 6.5, 40 °C, unit mM, not in table. An excerpt:
o-nitrophenol release, A420 on BgaA
The source holds these as a separate data set.

B1: BgaB (Bifidobacterium breve UCC2003) (protein)
chain: MEHREFKWPQPLAGGKPRIWYGGDYNPDQWPEEVWDEDVALMQKAGVNLVSVAIFSWAKLEPEEGVYDFDWLDRVIDKLGKAGIAVDLASGTASPPMWMTQAHPEILWVDYRGDVCQPGARQHWRATSPVFLDYALNLCRKMAEHYKDNPYVVSWHVSNEYGCHNRFDYSEDAERAFQKWCEKKYGTIDAVNDAWGTAFWAQRMNNFSEIIPPRFIGDGNFMNPGKLLDWKRFSSDALLDFYKAERDALLEIAPKPQTTNFMVSAGGAGIDYDKWGYDVDFVSNDHYFTPGEAHFDELAYSASLCDGIARKNPWFLMEHSSSAVNWRPINYRVEPGELVRDSLAHLAMGADAICYFQWRQSKAGAEKWHSSMVPHAGPDSQIFRDVCELGADLNKLADEGLLSTKLVKSKVAVVFDYESQWATEHTATPTQEVRHWTEPLAWFRALADNGLTADVVPVRGPWDEYEAVVLPSLTILSEETTRRVREYVANGGKLFVTYYTGLVDDKDHVWLGGYPGSIRDVVGVRVEEFAPMGNDFPGAMDHLDLDNGTVAHDFADVITSVADTAHVVASFKADKWTGFDGAPAITINDFGDGKAAYVGARLGREGLAKSLPALLEELGIETSAEDDRGEVLRVERADETGENHFVFLFNRTHDVAIVDVDGEPLVASLAQVNESEHTAAIQPNGVLVVKL
notes: His6-tagged, expressed in Lactococcus lactis (pNZ8150), Ni-purified; trimer
In the case of B1, the Km in data set [1] is on record as 8.607 mM.

B2: BgaA (Bifidobacterium breve UCC2003) (protein)
chain: MTNLQSAQQFSQAWLTDPRVFAVNRLAAHSSHKFYDHAPQCGEAMDLKQSLDGQWRVQMVDLADLADNELAEAAFAQPGYDAAGFSPIEVPSALETKGFLNHQYVNQQYPWSGHESPVAPDVPKHNHVALYRHEFSLEPKAAAVLEANKTAADDAAKRRVTLIFQGAATAIVVWLNGAFIGYAEDSFTPSEFDVTDVLRDGVNTLAVACFEFSSASWLEDQDFWRLHGIFRSVELEAQPLVHVNDLRVLADYDHTTGEGSLDVVALVRNAGTAAAVAATVLDAAGNTVWHSKLTAGADAETLTVKANVGKVNPWSAEEPTLYTLQVVATDAAGQVIEAALQRIGFRHFAIEDGLMKLNGKRIVFKGVDRHEFDARTGRTIAEADMIEDIHSFKRLNINAVRTSHYPNETRWYELCDEYGIYVLDETNLETHGSWTDPGDVFQPARAIPGSKDEWRAACVDRTASMVRRDYNHPSVVIWSLGNEAFGGDVFYSMRDFVHENDPFRPVHYEGTFNDPEFSAATDIMSRMYAKPDEIVKLYLGEDGKKPYISCEYSHSMGNSTGGLHLYTELERYPLYQGGFIWDYVDQALWQDCGDGTERLAYGGDFEDRPNDYEFSGDGVMFADRTPSPKAQEVKQLYANVKLVPDESGVTITNDNLFISTASSLFTARVLVDGVECWHANYRFDVPAGETVREPIAFPKVTDLVALSGSAEVTYEVDQRLAEATDWAPAGYELTFGQYVAAVSFDDGAADAVVAGDAEVAADGFNAGIHTDFGEVLLSKTQGGMVSFKRDGREMVIRRPNLTTFRALTDNDRGNGSGFERAQWMAAGRYARVTGTSVEETADGKGLKATYSYELADAKHTPVTVHYEVDAALRVHLTVKYPGEADAATLPAFGLEWILPKQYDRLRFYGLGPEETYADRLHGAKLGVFSRTAAEDCAPYLLPQETGNHEQVRWAEITDEYGHGMRVTAAGGTRFATSLLPYSSLMLEDALHQNELPKPRHTFLRLLAAQMGVGGDDTWGAPVHDEFQVPADQPLKLDVTLELI
notes: His6-tagged, expressed in Lactococcus lactis (pNZ8150), Ni-purified; dimer
B2: the Km in data set [2] amounted to 10.8 mM.
